Article PMC2892321

Target: postsynaptic density 95 (PSD95), wild type (mouse (endogenous in hippocampus and spinal cord)) (UniProt Q62108)
Experiment: co-IP

Chain of postsynaptic density 95 (PSD95), wild type (mouse (endogenous in hippocampus and spinal cord)) (Q62108 whole entry): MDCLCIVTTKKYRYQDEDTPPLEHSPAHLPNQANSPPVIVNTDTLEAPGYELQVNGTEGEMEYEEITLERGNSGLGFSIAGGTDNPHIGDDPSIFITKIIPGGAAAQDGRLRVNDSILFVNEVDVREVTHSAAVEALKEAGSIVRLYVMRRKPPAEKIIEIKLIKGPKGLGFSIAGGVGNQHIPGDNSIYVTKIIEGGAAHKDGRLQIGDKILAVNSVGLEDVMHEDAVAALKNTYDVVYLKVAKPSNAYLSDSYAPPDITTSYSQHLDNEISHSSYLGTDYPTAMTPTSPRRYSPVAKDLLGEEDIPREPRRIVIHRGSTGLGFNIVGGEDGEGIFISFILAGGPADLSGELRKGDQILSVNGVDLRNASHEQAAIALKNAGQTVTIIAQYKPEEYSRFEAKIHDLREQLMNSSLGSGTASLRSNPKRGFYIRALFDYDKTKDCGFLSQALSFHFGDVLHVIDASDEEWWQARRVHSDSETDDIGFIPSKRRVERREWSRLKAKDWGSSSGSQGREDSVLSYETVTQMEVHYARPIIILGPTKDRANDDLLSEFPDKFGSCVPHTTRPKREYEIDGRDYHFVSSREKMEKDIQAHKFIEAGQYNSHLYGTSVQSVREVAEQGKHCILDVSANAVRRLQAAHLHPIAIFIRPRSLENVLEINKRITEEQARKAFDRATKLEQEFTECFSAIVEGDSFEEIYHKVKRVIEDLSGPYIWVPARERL

PI(3)K-C2α/PSD95 ratio (densitometry), ipsilateral to formalin: 0.053
PI(3)K-C2α/PSD95 ratio (densitometry), naive: 0.019
Substance: phosphatidylinositol-3-kinase-C2α (PI(3)K-C2α) (from UniProt Q61194 1-1686) (enzyme)
